Experimental data as given in the supplement of paper PMC10065799, “High-throughput profiling of sequence recognition by tyrosine kinases and SH2 domains using bacterial peptide display” (eLife, 2023).

What was measured:
FGFR3 = FGFR3 (UniProt P22607); test: phosphorylation enrichment, bacterial display (enrichment ratio); higher = better substrate or ligand; peptides without Tyr show the background
EPHB2 = EPHB2 (UniProt P29323); test: as above
Hck = Hck (UniProt P08631); test: as above
EPHB1 = EPHB1 (UniProt P54762); test: as above
Fer (mouse) = test: as above
c-Abl (mouse) = test: as above
FGFR1 = FGFR1 (UniProt P11362); test: as above
AncSZ = test: as above
Fyn = Fyn (UniProt P06241); test: as above
Chain of Fyn (P06241 whole entry, looked up): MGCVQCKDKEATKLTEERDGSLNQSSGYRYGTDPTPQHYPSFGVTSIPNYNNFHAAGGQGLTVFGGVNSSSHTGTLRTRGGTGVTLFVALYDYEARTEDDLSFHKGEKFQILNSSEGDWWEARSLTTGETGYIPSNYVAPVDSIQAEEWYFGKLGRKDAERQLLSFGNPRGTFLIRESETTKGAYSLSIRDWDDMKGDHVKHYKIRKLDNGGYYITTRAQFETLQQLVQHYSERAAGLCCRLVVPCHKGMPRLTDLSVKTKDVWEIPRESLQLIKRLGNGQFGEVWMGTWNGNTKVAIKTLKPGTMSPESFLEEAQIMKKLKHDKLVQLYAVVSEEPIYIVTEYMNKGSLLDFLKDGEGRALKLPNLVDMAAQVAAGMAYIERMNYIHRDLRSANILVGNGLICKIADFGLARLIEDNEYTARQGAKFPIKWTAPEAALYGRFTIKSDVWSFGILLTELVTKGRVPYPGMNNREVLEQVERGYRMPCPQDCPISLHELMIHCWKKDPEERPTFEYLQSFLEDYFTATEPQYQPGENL

MERTK = MERTK (UniProt Q12866); test: as above
Chain of MERTK (Q12866 whole entry, looked up): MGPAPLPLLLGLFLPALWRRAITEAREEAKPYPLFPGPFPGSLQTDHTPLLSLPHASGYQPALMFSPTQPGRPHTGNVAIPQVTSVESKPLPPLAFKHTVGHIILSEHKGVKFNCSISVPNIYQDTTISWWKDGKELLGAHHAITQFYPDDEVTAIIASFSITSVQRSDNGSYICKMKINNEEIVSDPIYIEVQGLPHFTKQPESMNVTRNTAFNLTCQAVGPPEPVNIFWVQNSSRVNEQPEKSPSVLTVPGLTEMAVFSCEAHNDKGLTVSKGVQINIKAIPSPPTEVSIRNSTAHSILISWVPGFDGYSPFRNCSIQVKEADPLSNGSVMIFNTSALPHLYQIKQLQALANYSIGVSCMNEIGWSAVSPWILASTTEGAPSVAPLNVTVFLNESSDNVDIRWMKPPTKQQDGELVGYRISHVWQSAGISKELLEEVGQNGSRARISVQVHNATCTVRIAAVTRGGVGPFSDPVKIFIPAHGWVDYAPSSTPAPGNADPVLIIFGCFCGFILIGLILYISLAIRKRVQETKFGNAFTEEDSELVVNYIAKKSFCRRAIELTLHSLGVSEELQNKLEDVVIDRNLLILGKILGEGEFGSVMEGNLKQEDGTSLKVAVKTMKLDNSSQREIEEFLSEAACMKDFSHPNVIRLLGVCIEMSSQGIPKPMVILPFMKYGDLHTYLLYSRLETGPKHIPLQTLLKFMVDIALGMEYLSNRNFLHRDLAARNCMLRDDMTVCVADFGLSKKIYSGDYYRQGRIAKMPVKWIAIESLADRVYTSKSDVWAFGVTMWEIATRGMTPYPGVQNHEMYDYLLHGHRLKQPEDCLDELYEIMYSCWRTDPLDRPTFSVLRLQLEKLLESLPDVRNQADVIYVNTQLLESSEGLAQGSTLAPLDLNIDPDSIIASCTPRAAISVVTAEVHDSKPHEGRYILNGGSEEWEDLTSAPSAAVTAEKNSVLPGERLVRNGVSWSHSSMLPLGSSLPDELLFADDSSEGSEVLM

Jak2 = Jak2 (UniProt O60674); test: as above
c-Src = test: as above
Fes = Fes (UniProt P07332); test: as above
Chain of Fes (P07332 whole entry, looked up): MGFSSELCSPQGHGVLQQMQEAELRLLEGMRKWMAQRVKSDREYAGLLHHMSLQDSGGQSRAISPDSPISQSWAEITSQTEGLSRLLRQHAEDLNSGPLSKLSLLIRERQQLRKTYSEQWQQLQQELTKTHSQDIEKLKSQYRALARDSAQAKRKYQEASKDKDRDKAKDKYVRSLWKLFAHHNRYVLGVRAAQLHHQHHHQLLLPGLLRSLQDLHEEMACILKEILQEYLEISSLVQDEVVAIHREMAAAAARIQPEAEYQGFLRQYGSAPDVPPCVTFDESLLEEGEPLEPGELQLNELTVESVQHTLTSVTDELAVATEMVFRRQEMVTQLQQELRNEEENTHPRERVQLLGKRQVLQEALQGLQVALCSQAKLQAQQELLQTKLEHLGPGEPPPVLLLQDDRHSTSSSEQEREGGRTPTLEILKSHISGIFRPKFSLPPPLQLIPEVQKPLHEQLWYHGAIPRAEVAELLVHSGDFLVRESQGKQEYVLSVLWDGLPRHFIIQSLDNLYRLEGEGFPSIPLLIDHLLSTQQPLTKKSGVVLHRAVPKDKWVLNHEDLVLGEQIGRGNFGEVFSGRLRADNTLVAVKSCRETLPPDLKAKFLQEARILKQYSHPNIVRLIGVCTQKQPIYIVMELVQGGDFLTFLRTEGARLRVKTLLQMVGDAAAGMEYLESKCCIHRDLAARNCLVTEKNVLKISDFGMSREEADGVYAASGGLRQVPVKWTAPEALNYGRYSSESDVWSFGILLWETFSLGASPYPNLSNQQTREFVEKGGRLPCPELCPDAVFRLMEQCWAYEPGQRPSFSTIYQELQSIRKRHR

Grb2 SH2 = Grb2 SH2 (UniProt P62993); test: SH2 binding enrichment of the phosphorylated peptide, bacterial display (enrichment ratio); higher = better substrate or ligand; peptides without Tyr show the background
Chain of Grb2 SH2 (P62993 whole entry, looked up): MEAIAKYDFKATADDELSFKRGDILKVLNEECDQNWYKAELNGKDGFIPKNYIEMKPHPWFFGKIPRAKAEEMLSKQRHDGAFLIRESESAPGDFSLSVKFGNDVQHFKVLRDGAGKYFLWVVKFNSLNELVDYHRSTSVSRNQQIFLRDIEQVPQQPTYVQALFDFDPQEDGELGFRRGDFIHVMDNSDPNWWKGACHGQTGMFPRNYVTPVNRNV

SHP2-C SH2 = test: as above
c-Src SH2 = test: as above
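For SH2 binding enrichment of the phosphorylated peptide, bacterial display in this document: peptide library displayed on the E. coli surface as eCPX fusions, selected cells deep-sequenced, score is each peptide's frequency after selection divided by its frequency in the input.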
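For phosphorylation enrichment, bacterial display in this document: 11-residue human phosphosite peptides and single-mutation variants displayed on the E. coli surface, counted by deep sequencing, each peptide's frequency after selection divided by its frequency in the unselected input library; frequency after pTyr selection over input frequency; kinase dosed for 20-30% of maximal phosphorylation in three min.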

Chain of Hck (P08631 whole entry, looked up): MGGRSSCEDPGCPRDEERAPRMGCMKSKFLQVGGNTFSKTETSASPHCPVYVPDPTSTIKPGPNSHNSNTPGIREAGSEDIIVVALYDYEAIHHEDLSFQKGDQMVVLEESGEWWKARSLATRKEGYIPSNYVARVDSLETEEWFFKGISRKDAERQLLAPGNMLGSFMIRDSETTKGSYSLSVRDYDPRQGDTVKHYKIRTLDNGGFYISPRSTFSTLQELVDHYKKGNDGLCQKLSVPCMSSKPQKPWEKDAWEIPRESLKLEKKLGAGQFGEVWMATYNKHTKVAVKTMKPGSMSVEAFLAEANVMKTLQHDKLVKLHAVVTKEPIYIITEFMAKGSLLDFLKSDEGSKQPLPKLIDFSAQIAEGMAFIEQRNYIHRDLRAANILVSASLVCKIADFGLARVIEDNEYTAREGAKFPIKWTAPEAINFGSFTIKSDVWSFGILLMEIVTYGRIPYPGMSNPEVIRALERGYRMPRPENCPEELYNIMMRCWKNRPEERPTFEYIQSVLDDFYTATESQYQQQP
Chain of FGFR3 (P22607 whole entry, looked up): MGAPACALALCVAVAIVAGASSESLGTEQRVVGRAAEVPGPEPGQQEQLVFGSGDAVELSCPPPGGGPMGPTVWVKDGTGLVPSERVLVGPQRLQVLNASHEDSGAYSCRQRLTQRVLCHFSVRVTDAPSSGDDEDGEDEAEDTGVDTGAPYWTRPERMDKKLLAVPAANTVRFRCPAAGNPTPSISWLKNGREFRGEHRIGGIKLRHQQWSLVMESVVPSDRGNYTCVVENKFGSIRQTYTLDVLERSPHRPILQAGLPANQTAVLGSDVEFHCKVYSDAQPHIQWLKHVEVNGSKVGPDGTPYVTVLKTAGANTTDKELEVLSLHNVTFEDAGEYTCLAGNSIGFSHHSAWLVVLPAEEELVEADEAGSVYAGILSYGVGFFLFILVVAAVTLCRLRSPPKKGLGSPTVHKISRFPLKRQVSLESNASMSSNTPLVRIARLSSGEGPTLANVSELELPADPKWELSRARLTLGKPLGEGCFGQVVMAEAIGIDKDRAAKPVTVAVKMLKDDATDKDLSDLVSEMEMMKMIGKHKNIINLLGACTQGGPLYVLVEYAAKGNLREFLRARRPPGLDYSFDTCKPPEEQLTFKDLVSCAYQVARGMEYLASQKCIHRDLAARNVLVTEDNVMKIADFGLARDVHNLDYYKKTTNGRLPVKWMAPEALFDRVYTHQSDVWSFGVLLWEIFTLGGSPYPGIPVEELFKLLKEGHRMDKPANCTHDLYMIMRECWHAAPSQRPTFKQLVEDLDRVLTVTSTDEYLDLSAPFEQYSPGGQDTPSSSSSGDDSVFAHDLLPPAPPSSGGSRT
Chain of EPHB2 (P29323 whole entry, looked up): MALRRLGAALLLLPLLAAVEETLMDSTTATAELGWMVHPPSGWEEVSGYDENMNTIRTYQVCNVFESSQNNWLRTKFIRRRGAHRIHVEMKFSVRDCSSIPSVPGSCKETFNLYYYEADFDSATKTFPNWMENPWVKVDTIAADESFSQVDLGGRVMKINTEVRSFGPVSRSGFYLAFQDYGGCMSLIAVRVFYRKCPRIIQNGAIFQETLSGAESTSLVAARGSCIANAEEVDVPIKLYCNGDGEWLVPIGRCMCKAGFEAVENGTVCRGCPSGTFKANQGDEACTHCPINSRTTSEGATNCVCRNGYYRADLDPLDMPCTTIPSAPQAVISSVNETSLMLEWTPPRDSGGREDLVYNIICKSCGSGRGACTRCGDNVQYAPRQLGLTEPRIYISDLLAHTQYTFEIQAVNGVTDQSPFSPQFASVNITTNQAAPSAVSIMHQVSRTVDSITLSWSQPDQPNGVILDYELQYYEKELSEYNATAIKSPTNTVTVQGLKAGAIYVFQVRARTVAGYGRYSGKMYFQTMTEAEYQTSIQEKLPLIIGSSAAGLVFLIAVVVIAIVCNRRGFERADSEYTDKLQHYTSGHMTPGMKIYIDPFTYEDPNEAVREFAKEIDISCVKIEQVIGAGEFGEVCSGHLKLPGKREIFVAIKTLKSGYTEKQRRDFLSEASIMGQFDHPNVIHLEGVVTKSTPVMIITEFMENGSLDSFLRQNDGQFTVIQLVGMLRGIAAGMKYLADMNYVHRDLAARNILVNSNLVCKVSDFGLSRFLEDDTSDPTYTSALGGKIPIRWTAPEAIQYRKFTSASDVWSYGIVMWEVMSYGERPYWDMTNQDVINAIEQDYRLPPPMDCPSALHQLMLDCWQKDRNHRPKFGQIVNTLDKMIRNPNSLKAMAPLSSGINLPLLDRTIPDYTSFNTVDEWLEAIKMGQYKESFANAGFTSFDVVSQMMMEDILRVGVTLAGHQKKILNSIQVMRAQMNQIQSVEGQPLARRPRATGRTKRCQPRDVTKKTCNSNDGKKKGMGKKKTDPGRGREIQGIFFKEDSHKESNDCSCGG

| Sequence | phosphorylation enrichment (FGFR3) | phosphorylation enrichment (EPHB2) | phosphorylation enrichment (Hck) | phosphorylation enrichment (EPHB1) | phosphorylation enrichment (Fer (mouse)) | phosphorylation enrichment (c-Abl (mouse)) | phosphorylation enrichment (FGFR1) | phosphorylation enrichment (AncSZ) | phosphorylation enrichment (Fyn) | phosphorylation enrichment (MERTK) | phosphorylation enrichment (Jak2) | phosphorylation enrichment (c-Src) | phosphorylation enrichment (Fes) | SH2 binding enrichment (Grb2 SH2) | SH2 binding enrichment (SHP2-C SH2) | SH2 binding enrichment (c-Src SH2) |
| --- | --- | --- | --- | --- | --- | --- | --- | --- | --- | --- | --- | --- | --- | --- | --- | --- |
| ISKTWYSAEQF [CD207_Y217_P213S] | 0.757 | 1.8 | 0.481 | 1.84 | 0.521 | 0.585 | 0.605 | 0.793 | 0.532 | 7.68 | 0.604 | 0.522 | 0.837 | 0.822 | 0.781 | 0.689 |
| IVEELYAIPPD [PEAK1_Y797_S792I] | 6.02 | 13.3 | 4.27 | 4.29 | 6.14 | 10 | 6.62 | 3.84 | 3.48 | 8.66 | 1.27 | 3.23 | 1.26 | 0.88 | 0.68 | 0.564 |
| IVKAYYVHARA [AIPL1_Y268_R270H] | 0.633 | 0.533 | 0.595 | 0.567 | 0.574 | 0.663 | 0.538 | 0.857 | 0.424 | 0.572 | 0.818 | 0.432 | 0.978 | 1.25 | 1.95 | 0.823 |
| IVRSLYEDQED [VHL_Y185_L188Q] | 0.742 | 0.621 | 0.581 | 0.67 | 0.523 | 0.826 | 0.67 | 1.39 | 0.477 | 0.482 | 1.3 | 0.59 | 1.36 | 0.985 | 0.993 | 1.09 |
| IYLGAYDRFLP [SLC22A5_Y486_V481I] | 0.94 | 4.21 | 6.82 | 2.18 | 2.42 | 2.56 | 0.918 | 1.72 | 5 | 6.6 | 1.16 | 5.43 | 1.18 | 0.979 | 2.29 | 0.726 |
| KAIMTYVSSFY [ACTN4_Y260] | 0.719 | 0.666 | 0.554 | 0.644 | 0.505 | 0.755 | 0.489 | 0.976 | 0.536 | 0.424 | 1.04 | 0.612 | 1.05 | 0.86 | 0.987 | 0.564 |
| KANEYYPVVLI [ADAMTS18_Y765] | 9.02 | 3.11 | 0.693 | 3.64 | 2.12 | 1.6 | 11.2 | 1.97 | 0.572 | 0.541 | 2.79 | 0.655 | 0.813 | 0.683 | 0.625 | 0.404 |
| KATKGYLDDPT [G6PD_Y322_E317K] | 0.484 | 0.603 | 0.417 | 0.431 | 0.329 | 0.451 | 0.529 | 0.73 | 0.405 | 0.443 | 0.755 | 0.395 | 0.639 | 0.888 | 0.84 | 0.489 |
| KAWTIYRPEDS [ZBP1_Y165] | 0.643 | 0.512 | 0.482 | 0.461 | 0.449 | 0.757 | 0.539 | 1.41 | 0.494 | 0.478 | 1.17 | 0.566 | 1.15 | 0.746 | 0.719 | 0.488 |
| KDAGDYKCKAK [LRIT3_Y326] | 0.517 | 0.312 | 0.55 | 0.408 | 0.312 | 0.654 | 0.448 | 0.542 | 0.386 | 0.332 | 0.579 | 0.384 | 0.618 | 1.4 | 0.767 | 0.83 |
| KDFTIHNPNLL [VANGL1_Y290_Y290H] | 0.561 | 0.366 | 0.392 | 0.516 | 0.353 | 0.574 | 0.424 | 0.698 | 0.369 | 0.453 | 0.654 | 0.439 | 0.829 | 0.812 | 0.553 | 0.444 |
| KDFTIYNPNLL [VANGL1_Y290] | 0.518 | 0.42 | 1.58 | 0.419 | 0.599 | 0.71 | 0.434 | 0.722 | 0.787 | 0.478 | 0.815 | 1.2 | 0.835 | 0.703 | 0.537 | 0.511 |
| KDGIGYISAAE [CALM2_Y100_N98I] | 0.517 | 0.424 | 0.454 | 0.393 | 0.464 | 0.557 | 0.476 | 0.635 | 0.466 | 0.476 | 0.589 | 0.427 | 0.763 | 1.07 | 0.686 | 0.598 |
| KDHLDYKFQPR [SOX9_Y172_P170L_YF] | 0.531 | 0.478 | 0.352 | 0.475 | 0.392 | 0.642 | 0.498 | 0.73 | 0.431 | 0.409 | 0.922 | 0.504 | 1.02 | 0.823 | 0.685 | 0.47 |
| KDHPDYEYQPR [SOX9_Y172_K173E] | 0.771 | 0.958 | 0.588 | 2.21 | 0.465 | 0.665 | 0.844 | 2.59 | 0.667 | 0.432 | 0.811 | 0.474 | 0.961 | 1.19 | 0.689 | 0.586 |
| KDHPDYKFPPR [SOX10_Y171_Q174P_YF] | 0.762 | 0.444 | 0.382 | 0.387 | 0.376 | 0.52 | 0.656 | 0.883 | 0.415 | 0.393 | 0.564 | 0.434 | 0.685 | 1 | 0.783 | 0.553 |
| KDIENYIQDGK [RAD50_Y964] | 0.616 | 0.515 | 0.45 | 0.504 | 0.416 | 0.639 | 0.543 | 0.923 | 0.433 | 0.464 | 0.82 | 0.461 | 0.965 | 0.979 | 0.687 | 0.526 |
